In patent US20260242485A1 (LEPU BIOPHARMA, published 2026):
Where a chain is given by its changes, count along the chain named. In names and notes the source's numbering stands.

T1: human CD32B expressed on CHO-K1 cells (human, UniProt P31994 43-310)
T1 construct: whole, on cells; also called hCD32B
T1 sequence (looked up): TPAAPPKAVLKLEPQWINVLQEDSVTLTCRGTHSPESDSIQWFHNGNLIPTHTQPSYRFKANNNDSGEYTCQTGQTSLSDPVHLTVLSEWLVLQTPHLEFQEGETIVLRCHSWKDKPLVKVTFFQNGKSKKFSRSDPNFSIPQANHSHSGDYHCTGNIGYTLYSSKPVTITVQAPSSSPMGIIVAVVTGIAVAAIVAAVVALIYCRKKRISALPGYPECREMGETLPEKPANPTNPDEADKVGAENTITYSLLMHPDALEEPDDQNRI

B1: 45H6E8-z19 (antibody, human IgG1, V domains shown)
VH: QVQLVQSGAEVKKPGASVKVSCKVSGYTLTDYYMQWVRQAPGKGLEWIGWIDPENGDTEYAPKFQGRVTMTADTSTDTAYMELSSLRSEDTAVYYCTTGGNYVDWGQGTTVTVSS
VL: DIQMTQSPSFLSASVGDRVTITCKASQNVGTAVAWYQQKPGKAPKLLIYSASNRYTGVPDRFSGSGSGTDFTLTISSLQPEDFATYFCQQYSSYPLLTFGQGTRLEIK
notes: Human IgG1 LALAPG constant region; also called HU-VH1-6 / HU-VL1-3
B2: 45H6E8-z20 (antibody, human IgG1, V domains shown)
VH: B1 VH with I48M, V68A
VL: B1 VL
notes: Human IgG1 LALAPG constant region; also called HU-VH1-7 / HU-VL1-3
B3: 45H6E8-z13 (antibody, V domains shown)
VH: B1 VH with I48M, A72E, T97A
VL: B1 VL
notes: also called HU-VH1-1 / HU-VL1-3
B4: 45H6E8-z17 (antibody, human IgG1, V domains shown)
VH: B1 VH with T30K, R67K, V68A
VL: B1 VL
notes: Human IgG1 LALAPG constant region; also called HU-VH1-5 / HU-VL1-3
B5: 45H6E8-z19p1 (antibody, V domains shown)
VH: B1 VH with N55Q
VL: B1 VL
notes: PTM-removed (N to Q in VH CDR2) version of z19
B6: GPC3-45H6E8-z19p1-hIgG1LALAPG (bispecific antibody)
heavy chain (anti-GPC3 heavy chain hIgG1 LALAPG, (G4S)4 linker, 45H6E8-z19p1 scFv): QVQLVQSGAEVKKPGASVKVSCKASGYTFTDYEMHWVRQAPGQGLEWMGAIHPGSGGTAYNQKFKGRVTMTRDTSTSTVYMELSSLRSEDTAVYYCARYYSYAYWGQGTLVTVSSASTKGPSVFPLAPSSKSTSGGTAALGCLVKDYFPEPVTVSWNSGALTSGVHTFPAVLQSSGLYSLSSVVTVPSSSLGTQTYICNVNHKPSNTKVDKKVEPKSCDKTHTCPPCPAPEAAGGPSVFLFPPKPKDTLMISRTPEVTCVVVDVSHEDPEVKFNWYVDGVEVHNAKTKPREEQYNSTYRVVSVLTVLHQDWLNGKEYKCKVSNKALGAPIEKTISKAKGQPREPQVYTLPPSREEMTKNQVSLTCLVKGFYPSDIAVEWESNGQPENNYKTTPPVLDSDGSFFLYSKLTVDKSRWQQGNVFSCSVMHEALHNHYTQKSLSLSPGKGGGGSGGGGSGGGGSGGGGSQVQLVQSGAEVKKPGASVKVSCKVSGYTLTDYYMQWVRQAPGKGLEWIGWIDPEQGDTEYAPKFQGRVTMTADTSTDTAYMELSSLRSEDTAVYYCTTGGNYVDWGQGTTVTVSSGGGGSGGGGSGGGGSDIQMTQSPSFLSASVGDRVTITCKASQNVGTAVAWYQQKPGKAPKLLIYSASNRYTGVPDRFSGSGSGTDFTLTISSLQPEDFATYFCQQYSSYPLLTFGQGTRLEIK
light chain: DIVMTQTPLSLSVTPGQPASISCRSSQSLVHSNGNTYLQWYLQKPGQSPQLLIYKVSNRFSGVPDRFSGSGSGTDFTLKISRVEAEDVGVYYCFQSIHVPYTFGGGTKLEIKRTVAAPSVFIFPPSDEQLKSGTASVVCLLNNFYPREAKVQWKVDNALQSGNSQESVTEQDSKDSTYSLSSTLTLSKADYEKHKVYACEVTHQGLSSPVTKSFNRGEC
B7: GPC3-45H6E8-z21p1-hIgG1LALAPG (bispecific antibody)
heavy chain (anti-GPC3 heavy chain hIgG1 LALAPG, (G4S)4 linker, 45H6E8-z21p1 scFv): B6 heavy chain (anti-GPC3 heavy chain hIgG1 LALAPG, (G4S)4 linker, 45H6E8-z19p1 scFv) with I513M
light chain: B6 light chain
B8: 45H6E8-z20p1 (antibody, V domains shown)
VH: B1 VH with I48M, N55Q, V68A
VL: B1 VL
notes: PTM-removed version of z20
B9: CCR8-hIgG1DE (antibody)
heavy chain: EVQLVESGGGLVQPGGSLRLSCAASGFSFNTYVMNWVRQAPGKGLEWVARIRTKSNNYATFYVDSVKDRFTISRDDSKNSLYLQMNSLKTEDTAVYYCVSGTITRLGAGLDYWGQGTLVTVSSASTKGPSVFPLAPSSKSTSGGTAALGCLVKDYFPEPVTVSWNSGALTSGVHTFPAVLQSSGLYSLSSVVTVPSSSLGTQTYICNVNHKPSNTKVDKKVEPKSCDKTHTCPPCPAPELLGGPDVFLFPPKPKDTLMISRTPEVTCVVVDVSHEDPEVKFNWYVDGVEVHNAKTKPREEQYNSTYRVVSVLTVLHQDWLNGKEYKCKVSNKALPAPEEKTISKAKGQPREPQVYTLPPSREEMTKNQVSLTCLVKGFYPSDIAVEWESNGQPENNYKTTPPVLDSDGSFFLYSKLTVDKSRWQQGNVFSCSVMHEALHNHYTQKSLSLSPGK
light chain: DIVMTQSPLSLPVTPGEPASISCRSSKSLLHSNANTYLYWYLQKPGQSPQLLIYRMSNLASGVPDRFSGSGSGTAFTLKISRVEAEDVGVYYCMQHLEYPFTFGGGTKLEIKRTVAAPSVFIFPPSDEQLKSGTASVVCLLNNFYPREAKVQWKVDNALQSGNSQESVTEQDSKDSTYSLSSTLTLSKADYEKHKVYACEVTHQGLSSPVTKSFNRGEC
notes: also called eADCC CCR8 mAb with Fc-DE (S239D/I332E)
B10: CCR8-45H6E8-hIgG1 (bispecific antibody)
heavy: not shown
light: B9 light chain
notes: Format 1: anti-CCR8 IgG1 with wildtype Fc and 45H6E8 scFv at the C-terminus of each heavy chain; also called CCR8-45H6E8-hIgG1 BsAb; CCR8-45H6E8 WT BsAb
B11: CCR8-hIgG1Afucosylated (antibody)
heavy: not shown
light: B9 light chain
modifications: chain 1 pos 303 (EU N297): the Fc N-glycan lacks core fucose (afucosylated); the letters are unchanged
notes: also called anti-hCCR8 monoclonal antibody with Fc-afucosylated; copies: 2 + 2
B12: CCR8-hIgG1DLE (antibody)
heavy chain: EVQLVESGGGLVQPGGSLRLSCAASGFSFNTYVMNWVRQAPGKGLEWVARIRTKSNNYATFYVDSVKDRFTISRDDSKNSLYLQMNSLKTEDTAVYYCVSGTITRLGAGLDYWGQGTLVTVSSASTKGPSVFPLAPSSKSTSGGTAALGCLVKDYFPEPVTVSWNSGALTSGVHTFPAVLQSSGLYSLSSVVTVPSSSLGTQTYICNVNHKPSNTKVDKKVEPKSCDKTHTCPPCPAPELLGGPDVFLFPPKPKDTLMISRTPEVTCVVVDVSHEDPEVKFNWYVDGVEVHNAKTKPREEQYNSTYRVVSVLTVLHQDWLNGKEYKCKVSNKALPLPEEKTISKAKGQPREPQVYTLPPSREEMTKNQVSLTCLVKGFYPSDIAVEWESNGQPENNYKTTPPVLDSDGSFFLYSKLTVDKSRWQQGNVFSCSVMHEALHNHYTQKSLSLSPGK
light chain: B9 light chain
notes: also called eADCC CCR8 mAb with Fc-DLE (S239D/A330L/I332E)

Each binder was assayed against T2, human CD16B-NA1 expressed on CHO-K1 cells (human, UniProt O75015 17-200) (assay: flow cytometry, CHO-K1-hCD16B-NA1 cells, Alexa Fluor 647 anti-human IgG Fc, geometric mean).
T2 construct: whole, on cells; also called hCD16B-NA1; CHO-K1-hCD16B-NA1
T2 sequence (O75015 other isoform, or with tags, fused parts or gaps): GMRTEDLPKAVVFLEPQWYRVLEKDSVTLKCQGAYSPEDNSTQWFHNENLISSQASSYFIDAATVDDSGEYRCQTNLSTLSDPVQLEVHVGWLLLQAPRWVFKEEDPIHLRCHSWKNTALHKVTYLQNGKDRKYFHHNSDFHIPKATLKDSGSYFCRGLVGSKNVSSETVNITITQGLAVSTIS
Procedure: (§1) In order to evaluate the binding activity of the chimeric mAbs to human CD16A expressed on cells, cell-based binding assay was employed as followed. […] The antibody dilutions were incubated with 1×10⁵ indicated cells in the 96-well microplate for one hour at 4° C. The antibodies binding to the antigen on the cell surface were detected with PE fluorophore-conjugated anti-human IgG Fc secondary antibodies (ThermoFisher scientific, Cat. No. 12-4998-82) at a dilution rate of 1:1000. Cells were analyzed by flow cytometer LSRFortessa Cell Analyzer (BD Biosciences). Data were analyzed with Flowjo 10.0 software. The graph and statistics analysis were generated with four-parameter nonlinear regression curve fit in Graphpad Prism 9 software.
(§2) The assay was performed following the protocol described above. The antibodies binding to the antigen on the cell surface were detected with Alexa Fluor® 647 AffiniPure™ F(ab′)₂ fragment goat anti-human IgG Fcγ fragment specific secondary antibody (Jackson Immuno Research, Cat. No. 109-606-098) at a dilution rate of 1:2000.

| binding result | Binder |
| --- | --- |
| no binding (tested: 100 nM) | B1 |
| no binding (tested: 100 nM) | B2 |
| no binding (tested: 100 nM) | B3 |
| no binding (tested: 100 nM) | B4 |

These binders were tested against T3, cynomolgus CD16 expressed on CHO-K1 cells (cynomolgus, UniProt Q8SPW2 17-254) (assay: flow cytometry, CHO-K1-cyno CD16 cells, Alexa Fluor 647 anti-human IgG Fc, geometric mean).
T3 construct: whole, on cells; also called cyno CD16; CHO-K1-cynoCD16
T3 sequence (Q8SPW2 17-254): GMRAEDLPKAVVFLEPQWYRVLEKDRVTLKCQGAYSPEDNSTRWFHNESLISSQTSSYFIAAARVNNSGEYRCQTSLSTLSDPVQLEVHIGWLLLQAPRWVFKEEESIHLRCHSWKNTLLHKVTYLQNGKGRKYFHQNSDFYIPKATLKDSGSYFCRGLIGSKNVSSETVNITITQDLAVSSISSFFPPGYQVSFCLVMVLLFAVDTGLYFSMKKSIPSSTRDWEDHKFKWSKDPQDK
Procedure: as §1, §2

| EC50 (read off the curve) [nM] | Binder |
| --- | --- |
| ~1 | B1 |
| ~1 | B2 |
| ~1 | B3 |
| ~1 | B4 |

These binders were tested against T4, human CD16A-158V expressed on CHO-K1 cells (human, UniProt P08637 17-254) (assay: flow cytometry, CHO-K1-hCD16A-158V cells, geometric mean).
T4 construct: whole, on cells; also called hCD16A-158V; CHO-K1-hCD16A-158V
T4 sequence (P08637 17-254 F176V): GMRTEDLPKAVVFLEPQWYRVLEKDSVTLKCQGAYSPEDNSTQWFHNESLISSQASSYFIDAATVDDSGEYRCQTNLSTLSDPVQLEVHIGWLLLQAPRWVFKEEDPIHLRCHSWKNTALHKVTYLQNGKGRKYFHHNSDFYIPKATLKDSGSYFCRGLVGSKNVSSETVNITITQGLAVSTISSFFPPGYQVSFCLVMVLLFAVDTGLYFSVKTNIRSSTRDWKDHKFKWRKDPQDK

| EC50 (read off the curve) [nM] | Binder |
| --- | --- |
| ~0.5 | B5 |
| ~1 | B6 |
| ~1 | B7 |

These binders were tested against T5, human CD16A-158F expressed on CHO-K1 cells (human, UniProt P08637 17-254) (assay: flow cytometry, CHO-K1-hCD16A-158F cells, geometric mean).
T5 construct: whole, on cells
T5 sequence (P08637 17-254): as the sequence (P08637 17-254 F176V) above, with V160F counted along it

| EC50 (read off the curve) [nM] | Binder |
| --- | --- |
| ~0.5 | B5 |
| ~2 | B6 |
| ~2 | B7 |

Molecular target: T5, human CD16A-158F expressed on CHO-K1 …
Assay: as above
Remark: another data set of the same source
Procedure: as §1
(§3) The assay was performed following the protocol described above.

| EC50 (read off the curve) [nM] | Binder |
| --- | --- |
| ~0.4 | B1 |
| ~0.4 | B2 |
| ~0.4 | B5 |
| ~0.4 | B8 |

What follows are binders tested against T6, human GPC3 on HepG2 cells (human, UniProt P51654 25-554) (assay: flow cytometry, HepG2 cells (GPC3 positive), geometric mean).
T6 construct: whole, on cells; also called GPC3-positive HepG2 cells
T6 sequence (P51654 25-554 limits assumed): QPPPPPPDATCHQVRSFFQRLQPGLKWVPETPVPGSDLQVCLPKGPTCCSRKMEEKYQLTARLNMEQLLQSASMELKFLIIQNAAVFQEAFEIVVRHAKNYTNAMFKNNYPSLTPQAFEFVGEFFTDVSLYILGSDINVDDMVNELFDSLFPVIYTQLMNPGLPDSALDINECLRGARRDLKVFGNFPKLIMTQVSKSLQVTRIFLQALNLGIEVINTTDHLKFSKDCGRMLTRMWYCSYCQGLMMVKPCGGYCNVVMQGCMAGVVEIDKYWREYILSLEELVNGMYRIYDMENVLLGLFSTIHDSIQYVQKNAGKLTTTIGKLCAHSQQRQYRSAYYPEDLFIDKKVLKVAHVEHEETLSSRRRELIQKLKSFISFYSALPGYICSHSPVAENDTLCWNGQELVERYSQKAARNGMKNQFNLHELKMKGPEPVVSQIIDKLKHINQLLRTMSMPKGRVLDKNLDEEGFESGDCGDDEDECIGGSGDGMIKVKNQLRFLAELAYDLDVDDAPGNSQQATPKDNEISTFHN

| binding result | EC50 (read off the curve) [nM] | Binder |
| --- | --- | --- |
| no binding (tested: 100 nM) | – | B5 |
| – | ~0.3 | B6 |
| – | ~0.3 | B7 |

What follows are binders tested against T1, human CD32B expressed on CHO-K1 cells (assay: flow cytometry, CHO-K1-hCD32B cells, geometric mean).
Excerpt: (§4) The purpose of the assay was to evaluate the binding of BsAb to each of the hFcγRs.

| binding result | Binder |
| --- | --- |
| binds | B9 |
| binds | B10 |
| binds | B11 |
| binds | B12 |

These binders were tested against T5, human CD16A-158F expressed on CHO-K1 … (assay: flow cytometry, CHO-K1-hCD16A-158F cells, Alexa Fluor 647 anti-human IgG Fc, geometric mean).
Procedure: as §1, §2

| EC50 (read off the curve) [nM] | Binder |
| --- | --- |
| ~0.4 | B1 |
| ~0.4 | B2 |
| ~0.4 | B3 |
| ~0.4 | B4 |

Each binder was assayed against T4, human CD16A-158V expressed on CHO-K1 … (assay: flow cytometry, CHO-K1-hCD16A-158V cells, Alexa Fluor 647 anti-human IgG Fc, geometric mean).
Procedure: as §1, §2

| EC50 (read off the curve) [nM] | Binder |
| --- | --- |
| ~0.4 | B1 |
| ~0.4 | B2 |
| ~0.4 | B3 |
| ~0.4 | B4 |

Molecular target: T5, human CD16A-158F expressed on CHO-K1 …
Assay: flow cytometry, CHO-K1-hCD16A-158F cells, geometric mean
Remark: another data set of the same source
Excerpt: as §4

| EC50 [nM] | Binder |
| --- | --- |
| 1.4 | B9 |
| 0.095 | B10 |
| 3.5 | B11 |
| 1.2 | B12 |

Molecular target: T4, human CD16A-158V expressed on CHO-K1 …
Assay: flow cytometry, CHO-K1-hCD16A-158V cells, geometric mean
Remark: another data set of the same source
Excerpt: as §4

| EC50 [nM] | Binder |
| --- | --- |
| 0.8 | B9 |
| 0.1 | B10 |
| 0.45 | B11 |
| 0.75 | B12 |

What follows are binders tested against T3, cynomolgus CD16 expressed on CHO-K1 … (assay: flow cytometry, CHO-K1-cyno CD16 cells, geometric mean).
Procedure: as §1, §3

| EC50 (read off the curve) [nM] | Binder |
| --- | --- |
| ~0.7 | B1 |
| ~0.8 | B2 |
| ~0.7 | B5 |
| ~0.7 | B8 |

Each binder was assayed against T2, human CD16B-NA1 expressed on CHO-K1 … (assay: flow cytometry, CHO-K1-hCD16B-NA1 cells, geometric mean).

| binding result | Binder |
| --- | --- |
| no binding (tested: 100 nM) | B5 |
| no binding (tested: 100 nM) | B8 |

Molecular target: T4, human CD16A-158V expressed on CHO-K1 …
Assay: flow cytometry, CHO-K1-hCD16A-158V cells, geometric mean
Remark: another data set of the same source
Procedure: as §1, §3

| EC50 (read off the curve) [nM] | Binder |
| --- | --- |
| ~0.4 | B1 |
| ~0.4 | B2 |
| ~0.4 | B5 |
| ~0.4 | B8 |
